Data published in patent US20230176057A1 (CHAN ZUCKERBERG BIOHUB, published 2023).

Molecular target: SARS-CoV-2 nucleocapsid protein (N protein) (SARS-CoV-2, UniProt P0DTC9 1-419)

B1: N-binding clone H2 Fab (Fab, V domains shown)
VH: EVQLVESGGGLVQPGGSLRLSCAASGFNVYSSSIHWVRQAPGKGLEWVASISSYYSYTSYADSVKGRFTISADTSKNTAYLQMNSLRAEDTAVYYCARSYNFSWSGYYGFDYWGQGTLVTVSS
VL: DIQMTQSPSSLSASVGDRVTITCRASQSVSSAVAWYQQKPGKAPKLLIYSASSLYSGVPSRFSGSRSGTDFTLTISSLQPEDFATYYCQQFIQFPITFGQGTKVEIKR
Kd: 20 nM
